Assay results: patent publication US20050014931A1 (ABGENIX, published 2005)

B1: Mab 1F10/7C5 (antibody, V domains shown)
VH: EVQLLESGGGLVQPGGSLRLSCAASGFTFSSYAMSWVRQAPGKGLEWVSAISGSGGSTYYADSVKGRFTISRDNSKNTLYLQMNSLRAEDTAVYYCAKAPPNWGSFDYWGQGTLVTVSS
VL: DIELTQSPLSLPVTLGQPASISCRSSQSLVYSDGNTYLNWFQQRPGQSPRRLIYKVSNWDSGVPDRFSGSGSGTDFTLKISRVEAEDVGVYYCMQGTHWPRTFGQGTKVEIKR
notes: also called Mab 7C5
B2: Mab 1A2 (antibody, V domains shown)
VH: not shown
VL: DIELTQSPDFQSVTPKEKVTITCRASQSIGSSLHWYQQKPDQSPKLLIKYASQSFSGVPSRFSGSGSGTDFTLTINSLEAEDAATYYCHQSSSLPRTFGQGTKVEIKR

Target: T1, Tetanus toxoid (UniProt P04958 2-1315)
T1 construct: also called TT
Assay: ELISA screen of hybridoma supernatants

T1 sequence (P04958 2-457 limits assumed, chain 1 of 2): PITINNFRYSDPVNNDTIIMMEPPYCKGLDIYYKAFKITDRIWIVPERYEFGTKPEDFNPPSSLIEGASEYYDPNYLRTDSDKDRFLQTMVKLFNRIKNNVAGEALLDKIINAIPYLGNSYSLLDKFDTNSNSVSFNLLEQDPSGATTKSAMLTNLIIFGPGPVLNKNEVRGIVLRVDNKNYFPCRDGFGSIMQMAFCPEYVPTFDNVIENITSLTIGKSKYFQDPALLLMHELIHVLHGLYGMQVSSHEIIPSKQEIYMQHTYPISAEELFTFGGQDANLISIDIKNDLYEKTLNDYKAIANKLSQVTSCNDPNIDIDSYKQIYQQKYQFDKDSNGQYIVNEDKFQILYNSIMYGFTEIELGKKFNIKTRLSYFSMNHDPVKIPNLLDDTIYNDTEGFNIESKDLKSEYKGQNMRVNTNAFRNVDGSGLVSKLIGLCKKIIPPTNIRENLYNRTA
T1 sequence (P04958 458-1315 limits assumed, chain 2 of 2): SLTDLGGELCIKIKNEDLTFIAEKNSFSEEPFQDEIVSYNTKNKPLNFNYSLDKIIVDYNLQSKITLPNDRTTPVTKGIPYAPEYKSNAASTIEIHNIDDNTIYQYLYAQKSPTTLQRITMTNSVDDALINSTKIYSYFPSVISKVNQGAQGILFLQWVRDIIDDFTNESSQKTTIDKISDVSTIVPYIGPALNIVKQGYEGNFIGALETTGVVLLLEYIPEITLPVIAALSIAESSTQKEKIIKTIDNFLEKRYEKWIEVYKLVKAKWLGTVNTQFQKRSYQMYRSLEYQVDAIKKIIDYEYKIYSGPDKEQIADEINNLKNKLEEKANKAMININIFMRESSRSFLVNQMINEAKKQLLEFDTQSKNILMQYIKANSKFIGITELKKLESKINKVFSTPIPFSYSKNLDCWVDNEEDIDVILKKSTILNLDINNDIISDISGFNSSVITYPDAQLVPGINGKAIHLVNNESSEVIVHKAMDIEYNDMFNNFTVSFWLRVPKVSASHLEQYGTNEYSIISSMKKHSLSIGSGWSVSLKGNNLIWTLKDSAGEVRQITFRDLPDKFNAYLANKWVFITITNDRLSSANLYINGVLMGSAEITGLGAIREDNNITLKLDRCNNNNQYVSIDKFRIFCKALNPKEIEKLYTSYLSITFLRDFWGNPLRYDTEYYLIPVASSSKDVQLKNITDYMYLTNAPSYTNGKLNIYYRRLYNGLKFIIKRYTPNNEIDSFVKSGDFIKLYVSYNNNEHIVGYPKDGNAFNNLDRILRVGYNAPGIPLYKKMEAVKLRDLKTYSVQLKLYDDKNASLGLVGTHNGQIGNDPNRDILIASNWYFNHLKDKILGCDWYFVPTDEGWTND

Binder	binding result
B1	no binding
B2	no binding
